According to publication PMC9723621:

Legend:
[1] = target: ArdK from plasmid R388 containing a C-terminal His tag (ArdKHT) (plasmid R388); test: SEC; S75 gel filtration of the purified protein in solution
[2] = target: T1, ArdK (SeMet, ArdKHT) (plasmid R388 (expressed in E. coli …, UniProt Q6I6B7 1-107)); test: X-ray crystallography (2.8 A); crystal structures only; protein in 20 mM Tris pH 7.5, 150 mM NaCl, 1 mM DTT, 1 mM EDTA (gel filtration buffer); complex and crystallization conditions not in the material; settings: protein: recombinant; tags: C-terminal His; chain copies: 2; blunt
T1 sequence: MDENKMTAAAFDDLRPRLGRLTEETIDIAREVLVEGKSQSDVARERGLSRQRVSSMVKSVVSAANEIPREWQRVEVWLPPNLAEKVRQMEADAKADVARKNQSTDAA

[3] = target: T2, ArdK (ArdKHT) (plasmid R388 (expressed in E. coli …, UniProt Q6I6B7 1-107)); test: X-ray crystallography (2.6 A); crystal structures only; protein in 20 mM Tris pH 7.5, 150 mM NaCl, 1 mM DTT, 1 mM EDTA (gel filtration buffer); complex and crystallization conditions not in the material; settings: protein: recombinant; tags: C-terminal His; chain copies: 2; blunt
T2 sequence: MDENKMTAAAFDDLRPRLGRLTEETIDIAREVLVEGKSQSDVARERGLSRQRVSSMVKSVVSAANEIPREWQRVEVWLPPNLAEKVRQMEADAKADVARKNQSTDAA

In the case of “ArdK from plasmid R388 containing a C-terminal His tag (ArdKHT) (natural protein)”, the stoichiometry N [1] is reported as 2.

B1: DR operator, Pssb (DR_1/DR_2) (dsDNA)
DNA 1: GTATTGACACCTATTGACA
DNA 2: TGTCAATAGGTGTCAATAC
B1: binds [2].

B2: IR operator, n = 3 spacer (IR_1/IR_2) (dsDNA)
DNA 1: GTAATGTCAATATTTGACA
DNA 2: TGTCAAATATTGACATTAC
B2: binds [3].
